Source: US20230019513A1

Target: murine Protein S (mouse) (UniProt Q08761)
Test: cell-based or functional assay

Chain of UniProt Q08761 (Q08761 42-675): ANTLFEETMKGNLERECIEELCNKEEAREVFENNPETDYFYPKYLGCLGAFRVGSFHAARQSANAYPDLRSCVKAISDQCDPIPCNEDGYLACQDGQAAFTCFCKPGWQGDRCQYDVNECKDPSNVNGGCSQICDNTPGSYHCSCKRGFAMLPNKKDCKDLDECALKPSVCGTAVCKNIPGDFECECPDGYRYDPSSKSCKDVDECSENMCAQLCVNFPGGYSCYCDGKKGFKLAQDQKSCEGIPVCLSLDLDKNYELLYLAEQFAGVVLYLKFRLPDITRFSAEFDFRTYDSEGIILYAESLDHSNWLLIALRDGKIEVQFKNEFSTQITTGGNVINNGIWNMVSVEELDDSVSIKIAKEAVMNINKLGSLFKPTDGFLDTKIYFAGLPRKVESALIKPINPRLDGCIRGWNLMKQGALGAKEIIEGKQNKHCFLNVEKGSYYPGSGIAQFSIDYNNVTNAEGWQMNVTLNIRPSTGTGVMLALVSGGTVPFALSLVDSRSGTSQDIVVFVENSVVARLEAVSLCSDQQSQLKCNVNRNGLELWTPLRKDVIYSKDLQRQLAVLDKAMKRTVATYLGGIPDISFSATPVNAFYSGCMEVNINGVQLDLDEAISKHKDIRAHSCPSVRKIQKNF

Row | reduction of ETP in Ca2+ ionophore-activated PRP of WT mice at 8 nM APC [%] | Substance
1 | 30 | mutated recombinant mouse APC (rmAPC L38D) (from UniProt P33587 42-460) (enzyme)
2 | 90 | wild type recombinant mouse APC (wt-rmAPC) (from UniProt P33587 42-460) (enzyme)
